Consider one substance from publication doi:10.1101/403360.

What is called Kd is the equilibrium constant for the complex coming apart. Read a low Kd as a tighter complex.

In test [1] the target is wild type GluN2B C-terminus peptide (…). The experiment in a line: SPR. On the technique in general: Surface plasmon resonance follows binding to a sensor surface in real time, without labels.
In test [2] the target is wild type GluN2A C-terminus peptide (…). The experiment in a line: SPR.

Take “isolated FRMPD2 PDZ2 domain (from UniProt A0A140LI67 934-1027) (domain or fragment)”: the Kd in test [1] is 250 µM; in test [2] it was 0.31 µM.
